From PMC10505172, “Discovery and pharmacophoric characterization of chemokine network inhibitors using phage-display, saturation mutagenesis and computational modelling” (Nature Communications, 2023)

Tests used:
CXCL6 = biological target: T1, CXCL6 (Homo sapiens, UniProt P80162); assay: CXCL6-induced Jurkat CXCR1 (J:CXCR1) migration (chemotaxis); format: cell-based; settings: HD2, HD2SCR and EVA4 at 10 μM, chemokine at EC80, J:CXCR1 cells, n = 3 biological replicates, Dunnett's test
T1 construct: purchased Peprotech 300-41
Method: For THP1 migration assays, 300000 cells/well were added to the top chamber of a 5-µm 96-well Transwell insert (3387, Corning) in 50 µL of cell migration media (RPMI-1640 (R0883, Sigma), 0.5% FBS (F9665, Sigma), 4 mM L-Glutamine (G7513, Sigma), 0.05% DMSO (D4540, Sigma)). The bottom chamber contained 150 µL of migration media with chemokine and peptide added. Cells were migrated at 37 °C in 5% CO2 for 4 h.
J:CXCR1 migration assays were performed exactly as for THP1 assays except that a 3-µm Transwell insert (3385, Corning) was used.
Following the migration assay the migration plate was shaken at 850 RPM for 10 min, and media from bottom plate transferred to a round-bottomed 96 well plate (353910, Falcon). Cell counts were determined using an Atune NxT Flow Cytometer Plate Reader with Cytkick autosampler (ThermoFisher), based on cell size parameters FSC-H/SSC-H, and a previously defined gate setting for each cell type (Supplementary Fig. 11). […] Statistical significances between control and experimental groups was evaluated using Dunnett’s test[73]. […] EC80 was calculated by fitting a chemokine dose-response curve with a 3-parameter log-logistic model (fixing the top to 100%) using the function “drm” in R-package drc[74]. IC50 was calculated by fitting an inhibitor response curve with a 4-parameter log-logistic model using the function “drm” in R-package drc[74]. […]

CXCL10 = biological target: T2, CXCL10 (Homo sapiens, UniProt P02778); assay: CXCL10-induced activated T cell (ATC) migration (chemotaxis); format: cell-based; settings: HD2, HD2SCR and EVA4 at 20 μM (Fig. 6i), activated T cells, n = 3 biological replicates
T2 construct: purchased Peprotech 300-12
Method: For activated-T cell migration assays, 100000 cells/well were added to the top chamber of a 3-µm Transwell insert (3385, Corning) in 50 µL of migration media (HBSS (14025-092, Life Technologies), 0.1% protease free bovine serum albumin (A7030, Sigma), 0.05% DMSO (D4540, Sigma)). The bottom chamber contained 150 µL of migration media with chemokine and peptide added. Cells were migrated at 37 °C in 5% CO2 for 2 h.
Following the migration assay the migration plate was shaken at 850 RPM for 10 min, and media from bottom plate transferred to a round-bottomed 96 well plate (353910, Falcon). Cell counts were determined using an Atune NxT Flow Cytometer Plate Reader with Cytkick autosampler (ThermoFisher), based on cell size parameters FSC-H/SSC-H, and a previously defined gate setting for each cell type (Supplementary Fig. 11). All experiments were performed as three technical and three biological replicates. Statistical significances between control and experimental groups was evaluated using Dunnett’s test[73]. IC50 experiments were performed at the EC80 dose of chemokine. EC80 was calculated by fitting a chemokine dose-response curve with a 3-parameter log-logistic model (fixing the top to 100%) using the function “drm” in R-package drc[74]. IC50 was calculated by fitting an inhibitor response curve with a 4-parameter log-logistic model using the function “drm” in R-package drc[74]. […]

B1: EVA4: parental tick class A evasin, mature peptide residues 24–127 with N-terminal His-tag, expressed in HEK293F cells (protein)
chain: EVPQMTSSSAPDLEEEDDYTAYAPLTCYFTNSTLGLLAPPNCSVLCNSTTTWFNETSPNNASCLLTVDFLTQDAILQENQPYNCSVGHCDNGTCAGPPRHAQCW
modifications: left off: 8xHis, N-terminal, state not stated
notes: parental tick class A evasin, mature peptide residues 24–127 with N-terminal His-tag, expressed in HEK293F cells
- effect on chemokine-induced cell migration (CXCL6): did not inhibit
- effect on chemokine-induced cell migration (CXCL10): did not inhibit
